Laboratory results published in US7422883.

Molecular target: β6 Δ746-764 deletion mutant expressed in SW480 cells (human) (UniProt P06756)
Assay: β6 immunoprecipitation (R6G9) from SW480 transfectants, blot with E10 (FIG. 27B)

Sequence of β6 Δ746-764 deletion mutant expressed in SW480 cells (human) (chain, as listed by the source mutant, chain 1 of 2): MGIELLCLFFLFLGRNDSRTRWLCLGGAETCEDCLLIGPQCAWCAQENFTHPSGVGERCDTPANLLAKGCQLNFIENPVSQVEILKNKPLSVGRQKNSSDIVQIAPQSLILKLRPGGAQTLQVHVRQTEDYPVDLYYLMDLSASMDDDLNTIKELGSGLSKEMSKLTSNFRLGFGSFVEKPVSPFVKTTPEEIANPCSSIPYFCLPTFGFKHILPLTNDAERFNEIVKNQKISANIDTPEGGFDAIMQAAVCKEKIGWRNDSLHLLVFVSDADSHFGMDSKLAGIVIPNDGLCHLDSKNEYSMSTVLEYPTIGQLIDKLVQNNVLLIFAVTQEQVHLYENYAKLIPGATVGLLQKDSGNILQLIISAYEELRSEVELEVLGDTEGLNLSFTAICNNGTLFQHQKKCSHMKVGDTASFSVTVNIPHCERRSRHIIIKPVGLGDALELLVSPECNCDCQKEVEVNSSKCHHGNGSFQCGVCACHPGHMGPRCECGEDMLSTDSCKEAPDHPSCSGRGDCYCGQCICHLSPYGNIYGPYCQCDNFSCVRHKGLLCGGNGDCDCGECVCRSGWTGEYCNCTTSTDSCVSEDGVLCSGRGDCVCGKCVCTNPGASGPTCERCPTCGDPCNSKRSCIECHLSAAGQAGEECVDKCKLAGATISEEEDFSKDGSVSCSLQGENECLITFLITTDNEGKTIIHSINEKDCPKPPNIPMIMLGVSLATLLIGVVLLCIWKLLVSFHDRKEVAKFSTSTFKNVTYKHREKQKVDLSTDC
Sequence of β6 Δ746-764 deletion mutant expressed in SW480 cells (human) (P06756 31-1048, stated change not applied, chain 2 of 2): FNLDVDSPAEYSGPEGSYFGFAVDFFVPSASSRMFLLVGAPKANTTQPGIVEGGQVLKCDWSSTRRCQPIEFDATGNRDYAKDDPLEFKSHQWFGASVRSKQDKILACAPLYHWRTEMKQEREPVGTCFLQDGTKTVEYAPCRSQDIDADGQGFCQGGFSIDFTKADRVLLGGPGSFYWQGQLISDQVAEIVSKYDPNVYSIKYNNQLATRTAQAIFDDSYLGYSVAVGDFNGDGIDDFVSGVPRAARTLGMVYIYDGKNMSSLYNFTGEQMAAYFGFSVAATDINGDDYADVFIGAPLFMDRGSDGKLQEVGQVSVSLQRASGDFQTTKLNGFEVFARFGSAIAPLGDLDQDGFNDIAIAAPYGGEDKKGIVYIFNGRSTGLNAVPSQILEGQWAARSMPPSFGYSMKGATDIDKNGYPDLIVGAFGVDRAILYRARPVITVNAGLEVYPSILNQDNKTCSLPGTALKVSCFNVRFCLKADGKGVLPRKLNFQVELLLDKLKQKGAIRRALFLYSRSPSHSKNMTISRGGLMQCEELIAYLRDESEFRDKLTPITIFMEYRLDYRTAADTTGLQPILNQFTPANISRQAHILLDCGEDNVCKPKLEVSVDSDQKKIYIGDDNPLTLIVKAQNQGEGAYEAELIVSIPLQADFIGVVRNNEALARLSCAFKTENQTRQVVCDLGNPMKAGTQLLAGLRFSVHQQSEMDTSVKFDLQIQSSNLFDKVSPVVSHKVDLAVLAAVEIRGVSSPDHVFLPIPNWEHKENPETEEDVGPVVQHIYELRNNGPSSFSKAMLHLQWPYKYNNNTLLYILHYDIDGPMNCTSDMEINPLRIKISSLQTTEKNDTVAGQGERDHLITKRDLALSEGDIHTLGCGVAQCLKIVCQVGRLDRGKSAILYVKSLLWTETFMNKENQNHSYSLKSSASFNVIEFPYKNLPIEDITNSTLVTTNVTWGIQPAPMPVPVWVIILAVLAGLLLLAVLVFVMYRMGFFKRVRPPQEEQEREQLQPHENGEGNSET

reduction of β6-bound ERK against the wild type receptor: > 75%
Substance: ERK (endogenous ERK1/2, band at the position of ERK2, in lysates of human cell lines) (from UniProt P28482 2-360)
